These results are taken from the nanobody polyreactivity screen of Harvey et al. (2022).

The data set is described as follows: yeast display, Sf9 membrane polyspecificity reagent, FACS + sequencing; frameworks hold sequencing errors. The essentials:
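Galactose-induced (36–48 hours) yeast carrying a synthetic nanobody display library were exposed to 10% biotinylated, detergent-solubilized Sf9 membrane reagent at 4 °C for 1 hour. FACS followed streptavidin microbead enrichment, using low and high (top ~1%) gates for expression (anti-HA) and reagent binding (streptavidin). Colony PCR, MiSeq 2 × 250 sequencing and CDR-length filtering followed. Labels for polyreactivity reflect the gate of origin.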
In the case of “QVQLVESGGGLVQAGGSLRISCAASGSTFRWYAMGWYRQAPGKEREFVAAITWSGGRTYYADSVKGRFTISRDNAKNTVYLQMNSLKPEDTAVYYGNADDYGDSFNYWGQGTQVTVSS”, the “polyreactivity (PSR sort gate)” value is given as “high polyreactivity”.

As to “QVQLVESGGGLVQAGGSLRISCAASGSTFSLNAMGWYRQAPGKERELVAAISSRGTSTYYADSVKGRFTISRDNAKNTVYLQMNSLKPVDTAVYYCAAGKPKIPDDDYWGQGTQVTVSS”, the “polyreactivity (PSR sort gate)” value is reported as “high polyreactivity”.

As to “QVQLVESGGGLVQAGGSLRISCAASGSTFTINVMGWYTQAPGKERELVAAINGGGRTNYADSVKGRFTISRDNAKNTVYLQMNSLIPEDSAVYYCAADGLSIVRQMDYWGLGTQVTVSS”, the “polyreactivity (PSR sort gate)” value was “low polyreactivity”.

“QVQLVESGGGLVQAGGSLRISCAASGSTFWYYSMGWYRQAPGKERELVAAITRGGNTNYADSVKGRFTISRDNAKNTVYLQMNSLKPEDTAVYYCNADYKLADYREYNVYSFDYWGQGTQVTVSS”: the “polyreactivity (PSR sort gate)” value is reported as “low polyreactivity”.

As to “QVQLVESGGGLVQAGGSLRISCAASGSTSTGMTWDGIDRRLGRKELVAGIRSAGSTNYADSVKGRFTISRDNAKNTVYLQMNSLKPEDTAGYYCAKDYRWVWRKYGYWGQGTQVTLSS”, the “polyreactivity (PSR sort gate)” value was “low polyreactivity”.

In the case of “QVQLVESGGGLVQAGGSLRISCAASGSTYYNAMGWYRQAPGKERELVAAFRFRSGSTYYADSVKGRFTISRDNAKNTVYLQMNSLKPEDTAVYYCAADYKRSWRYAYNYWGQGTQVTVSS”, the “polyreactivity (PSR sort gate)” value is “high polyreactivity”.

Take “QVQLVESGGGLVQAGGSLRISCAASGSTYYTNTMGWYRQAPGKERELVADINGSGGSTYYADSVKGRITISRDNAKNTVYLQMNSLKPEDTAVYYCAAGSLQVAIRYDYWGQGTQVTVSS”: the “polyreactivity (PSR sort gate)” value is reported as “low polyreactivity”.

Regarding “QVQLVESGGGLVQAGGSLRISCAASGYMFPWYTMGWYRQAPGKERELVAAITSGSSTYYADSVKGRFTISRDNAKNTVYLQMNSLKPEDTAVYYCNAYDDAYRLYRLRGRDYWGQGTQVTVSS”, the “polyreactivity (PSR sort gate)” value is listed as “low polyreactivity”.

As for “QVQLVESGGGLVQAGGSLRISCAASGYTFLAYAMGWYRQAPGKERELVAAISRSGVSTYYADSVKGRFTISRDNAKNTVYLQMYSLKTEYTAVYYFNARSGRQLARYGYWGHGTQVTVSS”, the “polyreactivity (PSR sort gate)” value is “high polyreactivity”.

For “QVQLVESGGGLVQAGGSLRISCAASRSTFGIYAMGWYRQAPGKERELVAAISFRCGRTYYADSVKGRFTISRDNAKNTVYLQMISLKPEDNAVYYCAATWYWGNAYWGQGTQVTVSS”, the “polyreactivity (PSR sort gate)” value is “low polyreactivity”.

On to “QVQLVESGGGLVQAGGSLRISCAASVSTFDINTMGWYRQAPGKEREFVAAITDSDDSTYYADSVKGRFTISRDNAKNTVYLQMNSLKPEDSAVYYCAADRSHAYYRKNRVDYWGQGTQVTVSS”, for which the “polyreactivity (PSR sort gate)” value is “low polyreactivity”.

As to “QVQLVESGGGLVQAGGSLRISCAATGIIFIGYAMGWYRQAPGKERELVAAITRSGVSTYYADSVKGRFTISRDNAKNTVYLQMNSLKPEDTAVYYCAARYFGEKYSHGFDYWGQGTQVTVSS”, the “polyreactivity (PSR sort gate)” value is reported as “low polyreactivity”.

As for “QVQLVESGGGLVQAGGSLRISCADSGSIFHPNAMGWYRQAPGKERELVAAISIGGDTYYADSVKGRFTISRDNAKNTVYLQMNSLKPEDTAVYYCAVTYVGHVYEYYYWGQGTQVTVSS”, the “polyreactivity (PSR sort gate)” value is “low polyreactivity”.

For “QVQLVESGGGLVQAGGSLRISCAGSGSIFSRNAMGWYSQAPGTERELVAAITGSGSSTYYADSVKGRFTISRDNAKNTVYLQMNSLKPEDTAGYYCNAARVYLSEWGQGTQGTVSS”, the “polyreactivity (PSR sort gate)” value is “high polyreactivity”.

As for “QVQLVESGGGLVQAGGSLRISCASSGRTFWGNAKGRYRQAPGKERELVAGITKSGGTTYADSVKGRFTISRDNAKKTVYLQMNSLKPEDTAVYYCNAVRWQKGDYWGQGTQVTVSS”, the “polyreactivity (PSR sort gate)” value is on record as “high polyreactivity”.

In the case of “QVQLVESGGGLVQAGGSLRISCASSGSIFYLNAMGWYRQAPGKERELVAAISRRGGTTSYADSVKGRFTISRDNAKNTVFLQMNSLKPEDTAVYYCAKRTKPSKNYYYWGQGTQVTVSS”, the “polyreactivity (PSR sort gate)” value is given as “high polyreactivity”.

Take “QVQLVESGGGLVQAGGSLRISCASSVRILGVYFMGWYRQAPGKERELVAAISGGGRTNYADSVKGRFTISRDNAKNTVYFQMNRLNPEDTAVYYCNAERPYQFYQCIYSWYYYWGQGTQVTVSS”: the “polyreactivity (PSR sort gate)” value is reported as “low polyreactivity”.

For the sequence “QVQLVESGGGLVQAGGSLRISCDASGRTFYWNAMGWYRQAPGKEREFVAAITNTAVSTYYADSVKGRFTISRDNAKNTVYLQMNSLKPEATAVYYCAKSGNAGYRTYLRDYWGQGSQVTVSS”, the “polyreactivity (PSR sort gate)” value is reported as “low polyreactivity”.

Regarding “QVQLVESGGGLVQAGGSLRISFAASGSTFDIYVMGWYRQAPGKERELVAAISRVGNTSYADSVKGRFTISRDNAKNTVYLQMNSLKPEDKAVYYCAADAPSWYDRQYDYWGKGTQVTVSS”, the “polyreactivity (PSR sort gate)” value is listed as “low polyreactivity”.

Turning to “QVQLVESGGGLVQAGGSLRISSAASGIIFPWYYMGWYRQAPGKESELVAGITDGGDTTYADSVKWRFTISRDYAMNNVYLEMNRLKPEDTAVYYCAADIGYGYWHFDYLGQGTQVTVSS”, the “polyreactivity (PSR sort gate)” value is listed as “low polyreactivity”.

“QVQLVESGGGLVQAGGSLRISSAASGSTNYPNAMGWYRQAPGKERELVAVIRWSGGSTYYADSVKGRFTISRDNAKNTVYLQMNSLKPEDTAVYYCNADFYRVAYLRRYSHFDYWGQGTQVTVSS”: the “polyreactivity (PSR sort gate)” value was “high polyreactivity”.

For “QVQLVESGGGLVQAGGSLRITCAASGSIYKSNAMGWYRQAPGKEREFVAAITWSGGSTYYADSVKGRFTISRDNAKNTVDLKMNSLKPEDTAVCYCAATQYRSDGWRYDYWGQGTQVTVSS”, the “polyreactivity (PSR sort gate)” value was “high polyreactivity”.

For “QVQLVESGGGLVQAGGSLRITCAASGYTFGAYSMGWYRQAPWKERELVAAITVRAGRTYYADSVKGRFTISRDNAKNTVYLQMNSLKPEDTAVYYCAADGYLLYVQHPNGRRYDYWGQGTQVTVSS”, the “polyreactivity (PSR sort gate)” value is “low polyreactivity”.

Take “QVQLVESGGGLVQAGGSLRITCAGSGRTFFGYAMGWYRQAPGKERELVAAITRGGSTNYADSVKGRFTISLDNGKNTLYLQMNSLKPEDSAVYYCAVGVPTTFKNRRYFRMDYWGQGTQGTVSS”: the “polyreactivity (PSR sort gate)” value is reported as “high polyreactivity”.

In the case of “QVQLVESGGGLVQAGGSLRLICAASGATFVDYTMGWYRQAPGKERELVAAITVSAGSTYYADSVKGRFTISRDNAKNTVYLQMNSLKPEDTAVYYCAKATSSFYHYRYDYWGQGTQVTVSS”, the “polyreactivity (PSR sort gate)” value is on record as “low polyreactivity”.

In the case of “QVQLVESGGGLVQAGGSLRLICAASGFIFGLNAIGWYRQAPGKERELVAAIRSASSTNYADSVKGRFTISRDNAKNTVYLQMNSLKPEDTAVYYCAAEDFTRQFEYWGQGTQVTVSS”, the “polyreactivity (PSR sort gate)” value is given as “low polyreactivity”.

“QVQLVESGGGLVQAGGSLRLICAASGFIFHSYAMGWYRQAPGKERELVARITIGDSTKYADSVKGRFTISRDNAKNTVYLQMNSLKPEDTAVYYCAADGWRYIAYYQGFRRMNYWGQGTQVTVSS”: the “polyreactivity (PSR sort gate)” value was “high polyreactivity”.

As for “QVQLVESGGGLVQAGGSLRLICAASGFIFKGYAMGWNRQAPGKERELVAAISSSGTSTYYADSVKGRFTISRDNAKNTVYLQMNSLKPEDTAVYYCAADLASYAYRYDFWGQGTQVTVSS”, the “polyreactivity (PSR sort gate)” value is recorded as “high polyreactivity”.

“QVQLVESGGGLVQAGGSLRLICAASGFIFNKNAMGWYRQAPGKERELVAAISQIGGTTYYADSVKGRFTISRVNAKNTVYLQMNSLKPEDTSVYYCAASRRVQSDYWGQGTQVTVSS”: the “polyreactivity (PSR sort gate)” value is “high polyreactivity”.

In the case of “QVQLVESGGGLVQAGGSLRLICAASGFIFPQNAMGWYRQAPGKERELLAAISKRGGSTYYADSVKGRFTISRDYAKNTVYLQMNSLKPEDTAVYYCAAGYRTRRGLGYYYWGQGTQVTVSS”, the “polyreactivity (PSR sort gate)” value is “high polyreactivity”.

As to “QVQLVESGGGLVQAGGSLRLICAASGFIFTTYAMGWYRQAPGKEREVVAAISSSGTTYYADSVKGRFTISRDNAKNTVYLQMNSLKPEDTAVYYCAARRQFRSYQQRLYYWGQGTQVTVSS”, the “polyreactivity (PSR sort gate)” value is on record as “low polyreactivity”.

Take “QVQLVESGGGLVQAGGSLRLICAASGFIFVYYVMGWYRQAPGKERELVAAITQSGGSTYYADSVKGRFTISRDNAKNTVYLQMNSLKPEDTAVYYCAAYRRTTGGGYDYWGQGTQVTVSS”: the “polyreactivity (PSR sort gate)” value is “high polyreactivity”.

For the sequence “QVQLVESGGGLVQAGGSLRLICAASGFIFYYYAMGWYRQAPGKERQVVAAITWSGGITYYADSVKGRFTISRDNAKNTVYLQMISMKPEDTAVYYCATGYEYYGYSGSRRDYWGQGTQVTVSS”, the “polyreactivity (PSR sort gate)” value is “low polyreactivity”.

In the case of “QVQLVESGGGLVQAGGSLRLICAASGFILRRYAMGWFRPAPGKEREFVAAIRYRGGNTYYADSVKGRFTLSRDTAKNTVYFQMNSLNPEDTAVYYCAADWSEKYEYWRQGTQVTVSS”, the “polyreactivity (PSR sort gate)” value was “high polyreactivity”.

On to “QVQLVESGGGLVQAGGSLRLICAASGFIYSYYAMGWYRQAPGKERELVAVISGSGGGTYYAVSVKGRFRISRDNAKNTVYLQMNSLKPEDTAVYDFAARNSGGTTKYYYWGQGTQVTVSS”, for which the “polyreactivity (PSR sort gate)” value was “high polyreactivity”.

Take “QVQLVESGGGLVQAGGSLRLICAASGFTFRSYAMGWYRQAPGKERELVAAITSTGGRTYYADSVKGRFTISRDNAKNTVYLQMNSLKPEDTAVYYCAAGRKHYAPVHFGYWGQGTQVTVSS”: the “polyreactivity (PSR sort gate)” value was “high polyreactivity”.

Regarding “QVQLVESGGGLVQAGGSLRLICAASGFTFYNYAKGWYRQAPGKERQLVAAISTSGGSTYYADSVKGRFTISRDNAKNTVYLQMNSLKPEDTAVYYCAAQATAYSYAYYYWGQGTQVTVSS”, the “polyreactivity (PSR sort gate)” value is “low polyreactivity”.

For “QVQLVESGGGLVQAGGSLRLICAASGFTINYYVMGWYRQAPGKERELVAAISGRGGSTYYADSVTGRFTISRDNAKNTVYLQMNSLNPEETAVYYCNKVFSIPWQGVRFDFWGQGTQVTVSS”, the “polyreactivity (PSR sort gate)” value is given as “high polyreactivity”.

Turning to “QVQLVESGGGLVQAGGSLRLICAASGGIFYFNAMGWYRQAPGKERELVASITWSGGNTYYADSVKGRFTISRDNAKNTVYLQMNSLKPEDTAVYYCAADTQEYRPTYDYWGQGTQVTVSS”, the “polyreactivity (PSR sort gate)” value is on record as “low polyreactivity”.

With “QVQLVESGGGLVQAGGSLRLICAASGIFASYAMGWYRQAPGKERELVAAIRSSGGRTYYADSVKGRFTISRDNAKNTVYLQMNSLKPEDTAVYYCAVASGQSFYWGQGTQVTVSS”, the “polyreactivity (PSR sort gate)” value was “high polyreactivity”.

“QVQLVESGGGLVQAGGSLRLICAASGIIFNHNAMGWYRQAPGKERELVAAITLSGGTTYYADSVKGRFTISRDNAKNTVYVQMNSLKPEDTALYYCATRSYILGWRYDYWGQGTQVTVSS”: the “polyreactivity (PSR sort gate)” value is listed as “high polyreactivity”.
